Key:
Conditions in all cases: FMN input: 0 or 200 uM; Eterna round: R93 (includes R88 designs)
MS2 coat protein [1] = assay: apparent KD of MS2 coat protein, switch ON state; designed switch direction (-1 OFF switch, 1 ON switch): 1; higher = weaker reporter binding
In short: (§1)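 Illumina sequencing clusters were used for on-chip transcription of designed RNA switches. Titration with SNAP-549-labelled MS2 coat protein followed, in twofold steps from 0.7 or 1.5 nM to 3 µM in 100 mM Tris-HCl pH 7.5, 80 mM KCl, 4 mM MgCl2, without or with constant ligand. Apparent KD is each design's median of fits to normalised cluster binding curves.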

MS2 coat protein [2] = assay: apparent KD of MS2 coat protein, switch OFF state (with FMN for OFF switches, without FMN for ON switches); designed switch direction (-1 OFF switch, 1 ON switch): 1; higher = weaker reporter binding
In short: as §1

MS2 coat protein [3] = assay: apparent KD of MS2 coat protein, switch ON state; designed switch direction (-1 OFF switch, 1 ON switch): -1; higher = weaker reporter binding
In short: as §1

MS2 coat protein [4] = assay: apparent KD of MS2 coat protein, switch OFF state (with FMN for OFF switches, without FMN for ON switches); designed switch direction (-1 OFF switch, 1 ON switch): -1; higher = weaker reporter binding
In short: as §1

| Sequence | apparent KD of MS2 coat protein (MS2 coat protein [1]) | apparent KD of MS2 coat protein (MS2 coat protein [2]) | apparent KD of MS2 coat protein (MS2 coat protein [3]) | apparent KD of MS2 coat protein (MS2 coat protein [4]) |
| --- | --- | --- | --- | --- |
| AAAAAAAAUGUGUAGGAUAUCAGUAAAAAUACAUGAGGAUCACCCAUGUUCAAAAAAAAAAAAACUGAGAAGGACGUGGAUGGUCC [Design 3] | 0.0123 µM | 0.0111 µM | – | – |
| AAAAAACAUGAGGAUCACCCAUGUAAAAAAAACACAGGAUAUCCCUUUAAAAAAAAAAAAGGAGAAGGGUGAAAAA [Nob's Hobby 4 - Jieux - Same State 1] | 0.0204 µM | 0.0234 µM | – | – |
| AAAAAACAUGAGGAUCACCCAUGUAAAAAAAACACAGGAUAUCCCUUUUUUAAAUAAAAAGGAGAAGGGUGAAAAA [Nob's Hobby 8 - Jieux - Same State 1] | 0.0241 µM | 0.0309 µM | – | – |
| AAAAAACAUGAGGAUCACCCAUGUAAAAAAAACACAGGAUAUCCCUUUUUUAAAUGGGAGGGAGAAGGGUGAAAAA [Nob's Hobby 12 - Jieux - Same State 1] | 0.0174 µM | 0.0293 µM | – | – |
| AAAAAACAUGAGGAUCACCCAUGUCAAAAGACAUGAGGAUAUGUACAGACUUCGGUCUGUACAGAAGGCAUGUAAA [SS1 - 1015] | 0.0246 µM | 0.273 µM | – | – |
| AAAAAACAUGAGGAUCACCCAUGUCCUCGGACAUGAGGAUAUGUACAGACUUCGGUCUGUACAGAAGGCAUGAAAA [SS1 - 1014] | 0.713 µM | 0.756 µM | – | – |
| AAAAAACAUGAGGAUCACCCAUGUCCUCGGACAUGAGGAUAUGUACAGACUUCGGUCUGUACAGAAGGCAUGUAAA [SS1 - 1018] | 0.901 µM | 0.684 µM | – | – |
| AAAAAACAUGAGGAUCACCCAUGUCGAAAGACGUGAGGAUAUGUACAGACUUCGGUCUGUACAGAAGGCACGUAAA [SS1 - 1040] | 0.0143 µM | 0.0338 µM | – | – |
| AAAAAACAUGAGGAUCACCCAUGUCGAAAGACGUGAGGAUAUGUACAGACUUCGGUCUGUACAGAAGGCAUGUAAA [SS1 - 1054] | 0.146 µM | 1.11 µM | – | – |
| AAAAAACAUGAGGAUCACCCAUGUCUUCGGACAUGAGGAUAUGUACAGACUUCGGUCUGUACAGAAGGCAUGUAAA [SS1 - 1017] | 0.323 µM | 0.0612 µM | – | – |
| AAAAAACAUGAGGAUCACCCAUGUGAAAAUAUGGAAGGAUAUACCGAAAAAAAAAAAAAGGUAGAAGGUCUAAAAA [SS! 1 MT 4] | 0.023 µM | 0.0323 µM | – | – |
| AAAAAACAUGAGGAUCACCCAUGUGAGAACAUGGGAGGAUAUACAAGGACGAGAGUCAAAGUAGAAGGCCUAAAAA [Garnet 65] | 0.155 µM | 0.0299 µM | – | – |
| AAAAAACAUGAGGAUCACCCAUGUGCAAAAUUCGCAGGAUAUUCCUUUUUUAAAUGGGAGGGAGAAGGGUGUAAAA [Nob's Hobby 19 - Jieux - Same State 1] | 0.0219 µM | 0.0345 µM | – | – |
| AAAAACACGGUGCAGGAUAUAUUAAUAGUCACAUGAGGAUCACCCAUGUUCAUUUAUAUGAACGAGUAGAAGGGCGGUGAAAAAA [Mat - Same state - Malcolm Mod - D112] | 0.172 µM | 0.148 µM | – | – |
| AAAAAUCCAGCGCAGGAUAUCGCAGGGUGCACAUGAGGAUCACCCAUGUGUACCCAAACACCCUGCGAGAAGGGCGUUGGAAAAAA [SameState-I] | 0.00966 µM | 0.0111 µM | – | – |
| AAAACACAUGAGGAUCACCCAUGUAAAAACAAGGGAGGAUAUGCUUGGAAAACAUGCUAUGCAGAAGGCUCAAGUG [SS1 - 11] | 0.0429 µM | 0.0311 µM | – | – |
| AAAACACAUGAGGAUCACCCAUGUGCCUAAUUCGCAGGAUAUUUCUCGAUUAAAUGAUAGGAAGAAGGGUGAUAAA [Nob's Hobby 36 - Jieux - Same State 1] | 0.186 µM | 0.0409 µM | – | – |

| Sequence | apparent KD of MS2 coat protein (MS2 coat protein [1]) | apparent KD of MS2 coat protein (MS2 coat protein [2]) | apparent KD of MS2 coat protein (MS2 coat protein [3]) | apparent KD of MS2 coat protein (MS2 coat protein [4]) |
| --- | --- | --- | --- | --- |
| AAAAGACAUGAGGAUCACCCAUGUAAAAACAUGGGAGGAUAUGCAUGGAAAACAUGCUGUGCAGAAGGCUCAUGUC [SS1 - 18] | 0.04 µM | 0.0255 µM | – | – |
| AAAAGACAUGAGGAUCACCCAUGUAAAAACGUAGGAGGAUAUGUAUGGAAACCAGACUGUACAGAAGGCCUCUGUC [SS1 - 72] | 0.0222 µM | 0.0211 µM | – | – |
| AAAAUAAAAAGGUAGGAUAUGGGUAAAACUACAUGAGGAUCACCCAUGUAAUAAAAAGAAAAAAACCAGAAGGACCAAAAUAAAA [72%, More Wateronthemoon, 8] | 0.0132 µM | 0.0347 µM | – | – |
| AAACAACAUGAGGAUCACCCAUGUCAAACAAAUCGAGGAUAUGGGCAGGAUUCUUCCUAACUAGAAGGCGAAAACA [Esmatidi] | 0.164 µM | 0.0298 µM | – | – |
| AAACCACAUGAGGAUCACCCAUGUAGAAAUAUGGGAGGAUAUACGAAGACGAAAGUCAAAGUAGAAGGCCUAAAAG [saturn 1] | 0.0245 µM | 0.0724 µM | – | – |
| AAAGAAGAAAGCGAGGAUAUGGAUGGGUAAACAUGAGGAUCACCCAUGUAUAAGAAAGAAAGAAACCAGAAGGCGCAAAAGAAAA [Khenemmaatre Hakor] | 0.07 µM | 0.0937 µM | – | – |
| AAAGACAUGGUGCAGGAUAUAUUAAUAGUCACAUGAGGAUCACCCAUGUUCAUUUAUAUGAACGAGUAGAAGGGCGAUGAAAAAA [SameState2 Malc#7] | 0.0384 µM | 0.0388 µM | – | – |
| AAAUAAAUAAGAGAGGAUAUGUCAGAGAAAACAUGAGGAUCACCCAUGUGAUAAUAAAAAGGGUGACAGAAGGCUCAAAACAAAC [Topaz 52] | 0.0199 µM | 0.0593 µM | – | – |
| AAAUAAAUGACUCAGGAUAUAUCAUAGAAUACAUGAGGAUCACCCAUGUUUUAAUAACAUGUUUGGUAGAAGGGAGUCAAUAAAU [LROPPY Same State 2 - v05_deltaG=1.86] | 0.0259 µM | 0.116 µM | – | – |
| AAAUAACAUGAGGAUCACCCAUGUUACAACAAUACAGGAUAUGUGGGUGAAAAUAGCAUGACAGAAGGGUACUGUA [SameState1 Malc#33] | 0.237 µM | 0.124 µM | – | – |
| AACAAACAUGAGGAUCACCCAUGUAAACAAACAUGAGGAUAUAUAACACAACAUCAACAGAUAGAAGGCAUAAAUA [JR_SS001_Sub1202] | 0.0921 µM | 0.0848 µM | – | – |
| UAAAGACAUGAGGAUCACCCAUGUGAGGAUAUCGGAGAUGACGGAACAUCAAGUUCGGCGAGAAGGCGCAGGAA [JR_Exc001_Sub406] | – | – | 0.0309 µM | 0.0307 µM |
| UAAAGACAUGAGGAUCACCCAUGUGAGGAUAUUGGUGACUAUAAAAAAAAAUAGUCACCGAGAAGGCAUAGGAA [JR_Exc001_Sub302] | – | – | 0.031 µM | 0.0424 µM |
| UACGUAUGAGGAUAUACAAACAGAAAAAUCAGACGUAAGUGACAUGAGGAUCACCCAUGUAGAAGGCAUAUGCA [JR_Exc002_Sub906] | – | – | 0.0269 µM | 0.0197 µM |
| UUAAUAGUAGGAUAUACAUGAGGAUCACCCAUGUAGCAACUACACAAAGGAACCUGAUGUAGAAGGACUUCCAG [Attionuson] | – | – | 0.0124 µM | 0.0136 µM |
| UUGGGACAUGAGGAUCACCCAUGUAAGGAUAUUGGCGCGCCGGCUCUGUCUGUUCCGCCGAGAAGGUACACGUU [Exclusion I] | – | – | 0.0455 µM | 0.102 µM |
